Results taken from patent publication US20140087995A1 (published 2014).
Numbered stars: 1 amine (or outer) side, 2 acyl side, 3 side chain; on linkers, the order of the positions; unused ones are H or OH. Bridge positions count the residues as written; N and C are the ends. Side chains are listed from the residue outwards. Ends that are not written are not given here. * marks the point of attachment. C20 diacid = O=C(O)CCCCCCCCCCCCCCCCCCC(=O)*; γGlu = O=C(O)[C@H](CCC(=O)[*:2])N[*:1]

T1: human calcitonin receptor (human, UniProt P30988 25-474)
T1 construct: whole, on cells; Assay used cell membranes, not intact cells; also called hCTR; hCT
T1 sequence (looked up): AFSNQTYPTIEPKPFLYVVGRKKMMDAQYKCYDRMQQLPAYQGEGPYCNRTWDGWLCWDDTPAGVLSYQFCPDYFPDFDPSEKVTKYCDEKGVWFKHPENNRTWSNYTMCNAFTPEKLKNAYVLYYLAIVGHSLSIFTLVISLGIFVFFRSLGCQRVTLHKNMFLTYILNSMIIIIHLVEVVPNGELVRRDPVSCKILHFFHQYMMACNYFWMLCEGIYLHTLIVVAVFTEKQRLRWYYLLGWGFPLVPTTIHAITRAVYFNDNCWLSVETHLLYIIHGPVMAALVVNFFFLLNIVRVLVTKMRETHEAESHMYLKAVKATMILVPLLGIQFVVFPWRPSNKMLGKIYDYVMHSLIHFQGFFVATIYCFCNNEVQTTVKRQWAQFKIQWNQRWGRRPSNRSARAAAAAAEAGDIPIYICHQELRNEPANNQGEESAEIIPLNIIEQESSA

T2: human amylin receptor (amylin 3(a) receptor: human calcitonin receptor with RAMP-3) (human, UniProt P30988 25-474; O60896 24-148)
T2 construct: whole, on cells; Assay used cell membranes of the Amylin 3(a)/CRE-luc BHK cells, not intact cells; also called hAmylin-R; hAmylinR
T2 sequence (looked up) 1: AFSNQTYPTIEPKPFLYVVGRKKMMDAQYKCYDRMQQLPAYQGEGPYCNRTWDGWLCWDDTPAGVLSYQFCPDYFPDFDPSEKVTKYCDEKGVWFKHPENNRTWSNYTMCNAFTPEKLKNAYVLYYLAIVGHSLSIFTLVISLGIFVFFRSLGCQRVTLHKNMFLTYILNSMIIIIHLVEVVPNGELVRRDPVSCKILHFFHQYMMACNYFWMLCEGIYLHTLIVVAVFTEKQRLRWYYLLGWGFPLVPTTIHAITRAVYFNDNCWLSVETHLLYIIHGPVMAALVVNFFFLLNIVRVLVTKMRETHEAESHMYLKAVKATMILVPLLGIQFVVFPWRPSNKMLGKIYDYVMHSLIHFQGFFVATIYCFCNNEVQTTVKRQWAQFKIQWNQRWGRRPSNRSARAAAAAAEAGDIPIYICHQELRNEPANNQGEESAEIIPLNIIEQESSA
T2 sequence (looked up) 2: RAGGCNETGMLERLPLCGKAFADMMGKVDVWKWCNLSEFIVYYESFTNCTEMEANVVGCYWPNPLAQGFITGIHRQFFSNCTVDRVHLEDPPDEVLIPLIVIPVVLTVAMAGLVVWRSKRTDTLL


Tests used:
[1] = molecular target: T1, human calcitonin receptor; assay: ratio IC50 hCTR / IC50 hAmylin-R (reference: human amylin receptor), SPA competition assays
In short: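 IC₅₀ values were derived by one-site competition analysis of SPA counts. Cell membranes (35 ng/μL) with SPA beads were incubated with test compounds for 120 min at 25° C in Hepes buffer, pH 7.4, containing CaCl2, MgCl₂, OA and Tween20.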

[2] = molecular target: T1, human calcitonin receptor; assay: SPA competition with 125I-calcitonin on membranes of BHK cells with human calcitonin receptor (Assay VII)
In short: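 BHK hCTR membranes 35 ng/μL + SPA beads 0.05 mg/well; buffer 50 mM Hepes pH 7.4, 1 mM CaCl2, 5 mM MgCl₂, 0.1% OA, 0.02% Tween20. 120 min, 25° C., shaking. Scintillation count; IC50 by one-site binding competition.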

[3] = molecular target: T2, human amylin receptor (amylin 3(a) …); assay: SPA competition with 125I-rat amylin on membranes of BHK cells with human calcitonin receptor and RAMP-3 (Assay V)
In short: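 Cell membranes were prepared by homogenisation in Na-HEPES/EDTA buffer, pH 7.4, and stored at −80° C. They were then coupled to SPA beads at 35 ng/μL final and exposed to compounds in assay buffer containing CaCl2, MgCl₂, OA and Tween20. After 120 min at 25° C, plates were counted and IC₅₀ derived.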

Row | Ratio hCT/hAmylin binding [1] | IC50 [2] [nM] | IC50 [3] [nM] | Binder
1 | 91.8 | 80.4 | 0.876 | K([γGlu-C20 diacid])CNTATCATQRLAHFLRHSSPNFGAIPSSTNVGRNTY-NH2 (disulfide 2-7; N-terminus assumed; SMILES CC[C@H](C)[C@H](NC(=O)[C@H](C)NC(=O)CNC(=O)[C@H](Cc1ccccc1)NC(=O)[C@H](CC(N)=O)NC(=O)[C@@H]1CCCN1C(=O)[C@H](CO)NC(=O)[C@H](CO)NC(=O)[C@H](Cc1c[nH]cn1)NC(=O)[C@H](CCCNC(=N)N)NC(=O)[C@H](CC(C)C)NC(=O)[C@H](Cc1ccccc1)NC(=O)[C@H](Cc1c[nH]cn1)NC(=O)[C@H](C)NC(=O)[C@H](CC(C)C)NC(=O)[C@H](CCCNC(=N)N)NC(=O)[C@H](CCC(N)=O)NC(=O)[C@@H](NC(=O)[C@H](C)NC(=O)[C@@H]1CSSC[C@H](NC(=O)[C@@H](N)CCCCNC(=O)CC[C@H](NC(=O)CCCCCCCCCCCCCCCCCCC(=O)O)C(=O)O)C(=O)N[C@@H](CC(N)=O)C(=O)N[C@@H]([C@@H](C)O)C(=O)N[C@@H](C)C(=O)N[C@@H]([C@@H](C)O)C(=O)N1)[C@@H](C)O)C(=O)N1CCC[C@H]1C(=O)N[C@@H](CO)C(=O)N[C@@H](CO)C(=O)N[C@H](C(=O)N[C@@H](CC(N)=O)C(=O)N[C@H](C(=O)NCC(=O)N[C@@H](CCCNC(=N)N)C(=O)N[C@@H](CC(N)=O)C(=O)N[C@H](C(=O)N[C@@H](Cc1ccc(O)cc1)C(N)=O)[C@@H](C)O)C(C)C)[C@@H](C)O, also called compound 85)
2 | 87.2 | 23.6 | 0.271 | K([γGlu-C20 diacid])CNTATCATQRLAHFLRHSSPNFGAIPSSTNVGHNTY-NH2 (disulfide 2-7; N-terminus assumed; SMILES CC[C@H](C)[C@H](NC(=O)[C@H](C)NC(=O)CNC(=O)[C@H](Cc1ccccc1)NC(=O)[C@H](CC(N)=O)NC(=O)[C@@H]1CCCN1C(=O)[C@H](CO)NC(=O)[C@H](CO)NC(=O)[C@H](Cc1c[nH]cn1)NC(=O)[C@H](CCCNC(=N)N)NC(=O)[C@H](CC(C)C)NC(=O)[C@H](Cc1ccccc1)NC(=O)[C@H](Cc1c[nH]cn1)NC(=O)[C@H](C)NC(=O)[C@H](CC(C)C)NC(=O)[C@H](CCCNC(=N)N)NC(=O)[C@H](CCC(N)=O)NC(=O)[C@@H](NC(=O)[C@H](C)NC(=O)[C@@H]1CSSC[C@H](NC(=O)[C@@H](N)CCCCNC(=O)CC[C@H](NC(=O)CCCCCCCCCCCCCCCCCCC(=O)O)C(=O)O)C(=O)N[C@@H](CC(N)=O)C(=O)N[C@@H]([C@@H](C)O)C(=O)N[C@@H](C)C(=O)N[C@@H]([C@@H](C)O)C(=O)N1)[C@@H](C)O)C(=O)N1CCC[C@H]1C(=O)N[C@@H](CO)C(=O)N[C@@H](CO)C(=O)N[C@H](C(=O)N[C@@H](CC(N)=O)C(=O)N[C@H](C(=O)NCC(=O)N[C@@H](Cc1c[nH]cn1)C(=O)N[C@@H](CC(N)=O)C(=O)N[C@H](C(=O)N[C@@H](Cc1ccc(O)cc1)C(N)=O)[C@@H](C)O)C(C)C)[C@@H](C)O, also called compound 81)
